The Immune Epitope Database (IEDB)

Columns and labels:
HLA-B*15:01 [1] = experiment: IEDB peptide-MHC binding, purified MHC/competitive/fluorescence; filed as Kd, often an IC50 or EC50 that approximates it; ≥ and ≤ were set here for values at or beyond the usual limits of such assays
HLA-B*40:01 [2] = experiment: as above
HLA-C*14:02 = experiment: IEDB peptide-MHC binding, purified MHC/direct/fluorescence; filed as Kd, often an IC50 or EC50 that approximates it; ≥ and ≤ were set here for values at or beyond the usual limits of such assays; settings: source organism: Salmonella enterica subsp. enterica serovar Typhi str. CT18
HLA-B*15:09 = experiment: as above
HLA-B*39:01 [3] = experiment: as above
HLA-C*05:01 = experiment: as above; settings: source organism: Salmonella enterica subsp. enterica serovar Typhi str. CT18
HLA-B*07:02 [4] = experiment: IEDB peptide-MHC binding, purified MHC/competitive/fluorescence; filed as Kd, often an IC50 or EC50 that approximates it; ≥ and ≤ were set here for values at or beyond the usual limits of such assays; settings: source organism: Salmonella enterica subsp. enterica serovar Typhi
HLA-B*51:01 = experiment: as above; settings: source organism: Salmonella enterica subsp. enterica serovar Typhi
HLA-A*01:01 [5] = experiment: IEDB peptide-MHC binding, purified MHC/direct/fluorescence; filed as Kd, often an IC50 or EC50 that approximates it; ≥ and ≤ were set here for values at or beyond the usual limits of such assays
HLA-A*11:01 = experiment: as above
HLA-A*31:01 = experiment: as above
HLA-A*68:02 [6] = experiment: as above; settings: source organism: Francisella tularensis subsp. holarctica LVS
HLA-A*69:01 = experiment: as above
HLA-B*07:02 [7] = experiment: as above
HLA-B*15:17 = experiment: as above
HLA-B*18:01 = experiment: as above
HLA-B*27:05 = experiment: as above
HLA-B*48:01 = experiment: as above; settings: source organism: Francisella tularensis subsp. holarctica LVS
HLA-B*57:01 = experiment: as above
HLA-B*58:01 = experiment: as above
HLA-A*02:03 = experiment: IEDB peptide-MHC binding, purified MHC/competitive/fluorescence; filed as Kd, often an IC50 or EC50 that approximates it; ≥ and ≤ were set here for values at or beyond the usual limits of such assays; settings: source organism: Francisella tularensis subsp. tularensis FSC198
HLA-A*26:02 = experiment: as above; settings: source organism: Francisella tularensis subsp. tularensis FSC198
HLA-B*08:01 [8] = experiment: as above; settings: source organism: Francisella tularensis subsp. tularensis FSC198
HLA-A*02:01 [9] = experiment: IEDB peptide-MHC binding, purified MHC/direct/fluorescence; filed as Kd, often an IC50 or EC50 that approximates it; ≥ and ≤ were set here for values at or beyond the usual limits of such assays
HLA-A*03:01 = experiment: as above
HLA-A*26:01 = experiment: as above
HLA-B*08:01 [10] = experiment: as above
HLA-B*15:01 [11] = experiment: as above
HLA-B*35:01 = experiment: as above
HLA-B*40:01 [12] = experiment: as above; settings: source organism: Vibrio parahaemolyticus
HLA-B*44:02 = experiment: as above; settings: source organism: Vibrio parahaemolyticus
HLA-A*02:11 = experiment: IEDB peptide-MHC binding, purified MHC/competitive/fluorescence; filed as Kd, often an IC50 or EC50 that approximates it; ≥ and ≤ were set here for values at or beyond the usual limits of such assays; settings: source organism: Haemophilus influenzae 22.1-21
HLA-A*02:12 = experiment: as above; settings: source organism: Haemophilus influenzae 22.1-21
HLA-A*02:01 [13] = experiment: as above; settings: source organism: Yersinia pestis Nepal516
HLA-B*39:01 [14] = experiment: as above; settings: source organism: Yersinia pestis Nepal516
HLA-A*01:01 [15] = experiment: as above; settings: source organism: Homo sapiens
HLA-A*29:02 = experiment: as above; settings: source organism: Homo sapiens
HLA-A*30:01 = experiment: IEDB peptide-MHC binding, purified MHC/direct/fluorescence; filed as Kd, often an IC50 or EC50 that approximates it; ≥ and ≤ were set here for values at or beyond the usual limits of such assays; settings: source organism: Vibrio parahaemolyticus
HLA-A*24:03 = experiment: as above
HLA-A*23:01 = experiment: as above; settings: source organism: Bacillus anthracis
HLA-A*24:02 = experiment: as above; settings: source organism: Bacillus anthracis
HLA-A*68:02 [16] = experiment: IEDB peptide-MHC binding, purified MHC/competitive/fluorescence; filed as Kd, often an IC50 or EC50 that approximates it; ≥ and ≤ were set here for values at or beyond the usual limits of such assays; settings: source organism: Bacillus anthracis str. A2012
[17] = source organism: Escherichia coli B171
[18] = source organism: Francisella tularensis subsp. holarctica LVS
[19] = source organism: Francisella tularensis subsp. tularensis FSC033
[20] = source organism: Vibrio parahaemolyticus
[21] = source organism: Haemophilus influenzae
[22] = source organism: Yersinia pestis Nepal516
[23] = source organism: Pseudomonas sp. KIE171
[24] = source organism: Bacillus anthracis
[25] = source organism: Bacillus anthracis str. A0465

AELRLVHEL
Kd (HLA-B*15:01 [1]; [17]): ≥ 20 µM
Kd (HLA-B*40:01 [2]; [17]): 0.0069 µM

AETLMAQPF
Kd (HLA-C*14:02): 2.31 µM
Kd (HLA-B*40:01 [2]; source organism: Salmonella enterica subsp. enterica serovar Typhi): 0.0122 µM

EHIPTMKIF
Kd (HLA-B*15:09; source organism: Variola virus): 0.304 µM
Kd (HLA-B*39:01 [3]; source organism: Camelpox virus M-96): 1.34 µM

FPPGTSLTI
Kd (HLA-C*05:01): ≥ 20 µM
Kd (HLA-B*07:02 [4]): 0.187 µM
Kd (HLA-B*51:01): 0.564 µM

HHSLTHHQL
Kd (HLA-B*15:09; source organism: Escherichia coli O157:H7 str. EC869): 0.002 µM

KRINSLIKY
Kd (HLA-A*01:01 [5]; [18]): ≥ 20 µM
Kd (HLA-A*11:01; [18]): ≥ 20 µM
Kd (HLA-A*31:01; [18]): ≥ 20 µM
Kd (HLA-A*68:02 [6]): ≥ 20 µM
Kd (HLA-A*69:01; [18]): ≥ 20 µM
Kd (HLA-B*07:02 [7]; [18]): ≥ 20 µM
Kd (HLA-B*15:09; [19]): ≥ 20 µM
Kd (HLA-B*15:17; [18]): ≥ 20 µM
Kd (HLA-B*18:01; [18]): ≥ 20 µM
Kd (HLA-B*27:05; [18]): 0.132 µM
Kd (HLA-B*39:01 [3]; [19]): ≥ 20 µM
Kd (HLA-B*48:01): ≥ 20 µM
Kd (HLA-B*57:01; [18]): ≥ 20 µM
Kd (HLA-B*58:01; [18]): ≥ 20 µM
Kd (HLA-A*02:03): 2.47 µM
Kd (HLA-A*26:02): ≥ 20 µM
Kd (HLA-B*08:01 [8]): ≥ 20 µM
Kd (HLA-B*15:01 [1]; source organism: Francisella tularensis subsp. tularensis FSC198): 3 µM

NSDPEFNVL
Kd (HLA-A*01:01 [5]; [20]): 0.387 µM
Kd (HLA-A*02:01 [9]; [20]): ≥ 20 µM
Kd (HLA-A*03:01; [20]): ≥ 20 µM
Kd (HLA-A*11:01; [20]): ≥ 20 µM
Kd (HLA-A*26:01; [20]): ≥ 20 µM
Kd (HLA-A*31:01; [20]): ≥ 20 µM
Kd (HLA-A*69:01; [20]): ≥ 20 µM
Kd (HLA-B*07:02 [7]; [20]): ≥ 20 µM
Kd (HLA-B*08:01 [10]; [20]): ≥ 20 µM
Kd (HLA-B*15:01 [11]; [20]): ≥ 20 µM
Kd (HLA-B*27:05; [20]): ≥ 20 µM
Kd (HLA-B*35:01; [20]): 0.208 µM
Kd (HLA-B*39:01 [3]; source organism: Vibrio parahaemolyticus AQ3810): 0.013 µM
Kd (HLA-B*40:01 [12]): 5.06 µM
Kd (HLA-B*44:02): ≥ 20 µM
Kd (HLA-B*58:01; [20]): ≥ 20 µM

RFLEDYFGV
Kd (HLA-A*02:01 [9]; [21]): 0.141 µM
Kd (HLA-A*31:01; [21]): 0.558 µM
Kd (HLA-A*69:01; [21]): 0.547 µM
Kd (HLA-A*02:11): 0.0041 µM
Kd (HLA-A*02:12): 0.0443 µM

SQMGLSCAL
Kd (HLA-A*02:01 [13]): 0.0046 µM
Kd (HLA-B*15:01 [1]; [22]): 0.0976 µM
Kd (HLA-B*39:01 [14]): 0.0035 µM
Kd (HLA-B*40:01 [2]; [22]): 0.567 µM

SVDGFRASY
Kd (HLA-A*01:01 [15]): 0.0071 µM
Kd (HLA-A*29:02): 0.0013 µM

VMETENALF
Kd (HLA-A*01:01 [5]; [20]): 5.02 µM
Kd (HLA-A*02:01 [9]; [20]): ≥ 20 µM
Kd (HLA-A*03:01; [20]): ≥ 20 µM
Kd (HLA-A*11:01; [20]): ≥ 20 µM
Kd (HLA-A*26:01; [20]): ≥ 20 µM
Kd (HLA-A*30:01): ≥ 44.8 µM
Kd (HLA-A*31:01; [20]): ≥ 20 µM
Kd (HLA-A*69:01; [20]): ≥ 20 µM
Kd (HLA-B*08:01 [10]; [20]): ≥ 20 µM
Kd (HLA-B*15:01 [11]; [20]): 0.301 µM
Kd (HLA-B*27:05; [20]): ≥ 20 µM
Kd (HLA-B*35:01; [20]): 0.427 µM
Kd (HLA-B*40:01 [12]): ≥ 20 µM
Kd (HLA-B*44:02): ≥ 20 µM

VPWQEKTAS
Kd (HLA-A*24:03; [23]): 10.5 µM
Kd (HLA-B*07:02 [7]; [23]): 5.81 µM
Kd (HLA-B*35:01; [23]): 0.00328 µM

YFENSDLNL
Kd (HLA-A*01:01 [5]; [24]): ≥ 20 µM
Kd (HLA-A*02:01 [9]; [24]): ≥ 20 µM
Kd (HLA-A*03:01; [24]): ≥ 20 µM
Kd (HLA-A*11:01; [24]): ≥ 20 µM
Kd (HLA-A*23:01): 0.65 µM
Kd (HLA-A*24:02): 7.5 µM
Kd (HLA-A*24:03; [24]): 0.13 µM
Kd (HLA-A*26:01; [25]): ≥ 20 µM
Kd (HLA-A*31:01; [24]): ≥ 20 µM
Kd (HLA-B*07:02 [7]; [24]): ≥ 20 µM
Kd (HLA-B*08:01 [10]; [25]): ≥ 20 µM
Kd (HLA-B*15:01 [11]; [24]): ≥ 5 µM
Kd (HLA-B*15:09; [25]): ≥ 20 µM
Kd (HLA-B*15:17; [24]): ≥ 20 µM
Kd (HLA-B*18:01; [24]): ≥ 20 µM
Kd (HLA-B*27:05; [24]): ≥ 20 µM
Kd (HLA-B*39:01 [3]; [25]): ≥ 20 µM
Kd (HLA-B*57:01; [24]): ≥ 20 µM
Kd (HLA-B*58:01; [24]): ≥ 20 µM
Kd (HLA-A*68:02 [16]): ≥ 20 µM
